From the DeepSol protein solubility set

experiment: soluble on expression in E. coli; label from the status in PepcDB or PDB records

Sequence	soluble on expression in E. coli
SNAIMAKTAKVAVSQIVEHPALDATRQGLLDGLKAKGYEEGKNLEFDYKTAQGNPAIAVQIARQFVGENPDVLVGIATPTAQALVSATKTIPIVFTAVTDPVGAKLVKQLEQPGKNVTGLSDLSPVEQHVELIKEILPNVKSIGVVYNPGEANAVSLMELLKLSAAKHGIKLVEATALKSADVQSATQAIAEKSDVIYALIDNTVASAIEGMIVAANQAKTPVFGAATSYVERGAIASLGFDYYQIGVQTADYVAAILEGKEPGSLDVQVAKGSDLVINKTAAEQLGITIPEAVLARATSTK	soluble
MAHHHHHHMLLSDAEAKITAVLKSLLDTPRTTYEVENLYQLNCERIAAVRAALADMSGDYVDQLCERCGEAEKQVQAKRAAGVASTAAADNAFSLDFALEEAEGQNEAEIESAISAAAHGSRRPKKSSGKEKSKKKEGEERHKKKEKRTLDDEPLVAPLPAGGGSCENNAADKATSSPSTRWVVLSRDDDLTSSEVLPALSTSDRVKCEAVPNTPLARVFFTEEVTRDGASCQCAVELYRCVVIAMRYGEPQLSWAECEKMMQSQVAAASKAGTIEDEGFDSRSAKRAGARSPKTSSDGDGEGAEDDSTSLVEEMTLSEQLIAQYDQAQQAEEEEEDADTLTLPRDISERFQQRLHGFTDEVWVILLCHGGYFAGGVFARGTCITHKAFQRYVVRKKQGGKQSSNAKDAGSYNSVGSQIRAVQEVKWRVDVRDILLDWMPYIQAASFILYAAPGPQNRAVLTDFSLLPAVASVGGRKGVSPIQLKDPRVSRVPLTTHRPTFEEVRRIYGVCSRCSLLYVRQEEAQERNTN	not soluble
MSLAQFYSAKRRTTTRQIITVSVNDLDSFGQGVARHNGKTLFIPGLLPQENAEVTVTEDKKQYARAKVVRRLSDSPERETPRCPHFGVCGGCQQQHASVDLQQRSKSAALARLMKHDVSEVIADVPWGYRRRARLSLNYLPKTQQLQMGFRKAGSSDIVDVKQCPILAPQLEALLPKVRACLGSLQAMRHLGHVELVQATSGTLMILRHTAPLSSADREKLERFSHSEGLDLYLAPDSEILETVSGEMPWYDSNGLRLTFSPRDFIQVNAGVNQKMVARALEWLDVQPEDRVLDLFCGMGNFTLPLATQAASVVGVEGVPALVEKGQQNARLNGLQNVTFYHENLEEDVTKQPWAKNGFDKVLLDPARAGAAGVMQQIIKLEPIRIVYVSCNPATLARDSEALLKAGYTIARLAMLDMFPHTGHLESMVLFSRVKEGHHHHHH	soluble
MGSDKIHHHHHHMDSWNMKGSKMVDVNEITKYLPGFNCGACGYKRCDLFAEALLNKDVKLEDCPFLLRERFKENYEKLKEILKIKGKIKKEEKYIGVIDGYEADFLLKPLPNECSCRETLLIMDKKELKVGDYIRYRPLGCPIPHFAKIIDEYHGFYIIHVVGPSHRITGEKIEYKDVGIAIVVAFEGIVEGKVPEVGKTVKFIPKHCMMQKVHSGVVVQVEGKRVYIEGIDLKVF	not soluble
MSLGDSNSSTPLPDTSYACQANVMTQSNQLRTYQIMVESFVDGDTSIGHGTGYGTSHHNGDLQGVIDSLDYIQDLGMNAIWLTPVFESEAIAGQDHWADRLDATGYFATDYFKIDPKFGDLATAKTLVEEAHKRGLYVFFDGVFGHHKNGLIKPSPSGLLPSGSSNPVDYPASLDFYKEVATYWIKELKIDGWRLDQAYQVPTDAWTQLRKAVDEASQSVTYTNSKGDQVNPLGYMVAEIWKGESEIANEAYGSNSDPALCSAFDFPMRYRIVETLAVNESGVGGRGVDWLDNGYSTHNQYPTHAQPNLMIGNHDLVRFGDLLQRGNLADVNDAEYWLRHKAAFAFQAAYTGPITLYYGDEIGDQVDGFAAKEDNNTCAIQGLCDDHVARSSAKIEGVTATLDANQADLKAYVTSLMTMRDTHPALYQGSRTNLVASNGSYVDLKQSGSDKVLFALNTLESARTVILAQESVGTGELVDLLTNEKIAPSNGQYQLPMSPLQGRFFAVTEGHHHHHH	soluble
MGSDKIHHHHHHLTLRVAVIGSGPAGSSAAETLAASGIETYLFERKLDNAKPCGGAIPLCMVSEFDLPPEIIDRRVRKMKMISPSNREVDINLINEDEYIGMCRREVLDGFLRDRAAKLGANLINATVHKLDIPGNNTDPYTIHYVDHTEGISQGIAKTLKVDLIIGADGANSRVAKEMDAGDYNYAIAFQERIRLPEDKMAYYNDLAEMYVGDDVSTDFYAWVFPKYDHVAVGTGTMHINKASIKQLQAGIRARASEKLAGGKIIKVEAHPIPEHPRPRRVVGRIALVGDAAGYVTKSSGEGIYFAAKSGRMCAETIVEASNSGSRIPTEGDLKIYLKRWDKRYGLTYKVLDILQSVFYRSDATREAFVEMCDDLDVQRLTFDSYLYKTVVPANPITQLKITAKTIGSLIRGNALAP	not soluble
SNTTEILTSVDVLGTHSQTGTQQSNMYTSTQKTELEIDNKDSVTECSKDMKEDGLSFVDIVLSKAASALDEKEKQLAVANEIIRSLSDEVMRNEIRITSLQGDLTFTKKCLENARSQISEKDAKINKLMEKDFQVNKEIKPY	soluble
MAWDLKVKMLGGNDFLVSVTNSMTVSELKKQIAQKIGVPAFQQRLAHQTAVLQDGLTLSSLGLGPSSTVMLVVQNCSEPLSILVRNERGHSNIYEVFLTQTVDTLKKKVSQREQVHEDQFWLSFEGRPMEDKELLGEYGLKPQCTVIKHLRLRGGGGDQCA	not soluble
GDSFYIRTHFEYEKESPYGLSFNKGEVFRVVDTLYNGKLGSWLAIRIGKNHKEVERGIIPNKNRAEQLASVQYVQTKFPAYERVVLREAGFLRPVTIFGPIADVAREKLAREEPDIYQIAKSEPRDAGTDQRSSGIIRLHTIKQIIDQDKHALLDVTPNAVDRLNYAQWYPIVVFLNPDSKQGVKTMRMRLCPESRKSARKLYERSHKLRKNNHHLFTTTINLNSMNDGWYGALKEAIQQQQNQLVWVSEG	soluble
STGVPATDLQQSIMKNVQPIELYFDNELVTDCSALGVYDNSYLVPLHLFEFDFDTIVLGGRHYKKAECEKVEFELEVNGDMVSSDACLLRVPSGPKVRNIVHLFTNEIELKKMTQVTGIMNSPHQARTVFFGSFLTVRKSILTSDGTVMPNVLSYAAQTSRGYCGAAIVAGSPARIIGIHSAGTGSVAFCSLVSKDALERTLPQKQ	not soluble
MFLSRGFNAFIAKPIDVMQLDAVLNTWVRDRKSIEILKQAEMIAPLIIENANQNIFDSVQIEGLDLVRGKKKYNNDAAYLDILRSWHKHTPALLEKMRNPVFENLSEYAITVHGIKGASLGICADEISSKAEELEHYAKSGNIGKVQADNSMFIGMAESLLANIGELLEKFDVGKKEKPKKHAPDPALLDRLLEAAKSYKSTLMEETMCSIESYDYDSDMELVTWLRQQMDDLEYDAIRQKLESRMPGFVET	not soluble
MKFVAVIRQVPDGESKLRIQGDRVDLSGATMILDQMDEYAVEEAIRLKERHGGEAVVVGFGPERTEEAIRTALAMGMDRGVHVVYEGFADPVAVAEALVEVLKEEAPTLVLTGGQQADWDSQALGGALTEALGVPVVAWTTALELEGDTAKAKHDLDEGAEWVRVRLPAVFTTQQGLNEPRYPTLPGIMKAKKKEIRKVQASLTPKVTLISEEIQEKSRLGKILDGKDPVAAAEELVRLLHEEAKVI	soluble
MTALSQLYPQPLWQWFEQICAIPHPSKHEQSLSQHIQAWAKQKQLDVVEDAVGNVIIRKAATPGMEDRKVVVIQAHIDMVPQKNADKVHDFIKDPIEAYVDGDWVKAKGTTLGADNGIGMASALAILGSDDIKHGPLEVLLTIDEEAGMTGAFGLQAGMLNAEILINTDSEQEGEIYMGCAGGVDAQITLPMVWQASEQSYASFSLHLSGLKGGHSGVNIHLGRGNANKILARFLFENADELALELTQFTGGSLRNAIPREANISFMLPAENIDALKEKVHAFEALMRAELAIADPDLRLVLSNIATPKRVMSENSQNTLIDLLHVCPNGVMRMSDEVTGVTETSLNVGVISTNDEEVGILCLIRSLIDSGRSQVEGMLNALTNLAGADVEFSGAYPGWKPDNTSPVMAIVRETYESIYHKEPVIMVIHAGLECGLFKKPYPEMDMVSIGPTIRYPHGPDEMVNITTVGQYWDLLVAVLERIPVKALEHHHHHH	not soluble
MEIVCEDFQKALTKIKLLRENANIIEETVQRSVREIVQNVRESRDEALSFYTKKFDGVEIKDVRVSEEEIKQASMFVESSFLEALQEAKKNIISYHEKQKRQSMFDCTSKGIIRGQIIRPLENIGVYVPGGTASYPSSVLMNVLPAKLAGVKKIVMVTPPRAGGIDPHILVAASLAGVDEIYMIGGAQAIAALAYGTESIPKVDKIVGPGNLYVALAKREVYGIVNIDMIAGPSEIVVIADETGNAKYIAADLLSQAEHDERATAICITTNIELAKEVEKEIERQLETLPRSEIARESINRNGAIFIVPSIDEALQLSNEIAPEHLELHIKEPMNALAYVKHAGSIFLGPYAPEPLGDYLAGPNHVLPTSGTARFFSPLSVDDFVKKSSFLSYTEGALRDVKHHIVELANKEGLHAHARAIQIRFGEEE	not soluble
MKVGFFLLKFPLSSETFVLNQITAFIDMGFEVEIVALQKGDTQNTHVAWTKYNLAARTRWLQDEPTGKVAKLRHRASQTLRGIHRKNTWQALNLKRYGAESWNLILSAICGQVATPFRADVFIAHFGPAGVTAAKLRELGVIHGKIATIFHGIDISSREVLNHYTPEYQQLFRRGDLMLPISDLWAGRLQKMGCPREKIAVSRMGVDMTRFSPRPVKAPATPLEIISVARLTEKKGLHVAIEACRQLKEQGVAFRYRILGIGPWERRLRTLIEQYQLEDVVEMPGFKPSHEVKAMLDDADVFLLPSVTGADGDMEGIPVALMEAMAVGIPVVSTLHSGIPELVEADKSGWLVPENDARALAQRLAAFSQLDTDELAPVVKRAREKVEHDFNQQVINRELASLLQAL	not soluble
MAQHVKFHQYFFQWMQLYKLDAVRPVTYRKYEMSHRQLVTLAPDLKMADLSRLTYQQLLNDYAETHERQTTMDFHRHLKGSLIDALEEGFIDRDPTRKAIIKGIKHRQHKLEHHHHHH	soluble
MKKLMITQEAGVATVLIKNPPVNILTIDLINELNAFILSLKDDRETKVVVFKSFHEAFFIAHLDLNVINGTSGGQAASIEFNHMIANIKAMKQLSIAVVDGVARGGGNEFVMACDLAYGTENSAFAQPELYINIPTGGQGAVQFARRLGKGKALQALLTGADFTAQQAETLNIITQFVLKAELDVFLAQLLSVIVGWEIRDIVMYKEIIAASIKDEAVGTELELRYFLERAREEKTQTIIAAFLKHGGQTEREAKDMQGIFVDTAAELSK	not soluble
MSAMENESNKDTNTETKSVPEEMEASKYVGQGFQPPAEKDAIEFAKKHRKEFEKVGEQFFKDNFGLKVKATNVVGKDDGVEVYVHCEDHGIVFNASLPLYKDAIHQKGSMRSNDNGDDMSMMVGTVLSGFEYRAQKEKYDNLYKFFKENEKKYQYTGFTKEAINKTQNVGYQNEYFYITYLSRNLKEYRKYYEPLIHKNDKEFKEGMQQARKELDYTANTDAVSTLFSTKKNFTKDNTVDDVIELSNKLKEKPNMPQKSQVTIQLGKSSINTKKPFYDDINPIEGLEHHHHHH	soluble
